# T1: 5-HT3 (h) (human), P46098
# T1 chain: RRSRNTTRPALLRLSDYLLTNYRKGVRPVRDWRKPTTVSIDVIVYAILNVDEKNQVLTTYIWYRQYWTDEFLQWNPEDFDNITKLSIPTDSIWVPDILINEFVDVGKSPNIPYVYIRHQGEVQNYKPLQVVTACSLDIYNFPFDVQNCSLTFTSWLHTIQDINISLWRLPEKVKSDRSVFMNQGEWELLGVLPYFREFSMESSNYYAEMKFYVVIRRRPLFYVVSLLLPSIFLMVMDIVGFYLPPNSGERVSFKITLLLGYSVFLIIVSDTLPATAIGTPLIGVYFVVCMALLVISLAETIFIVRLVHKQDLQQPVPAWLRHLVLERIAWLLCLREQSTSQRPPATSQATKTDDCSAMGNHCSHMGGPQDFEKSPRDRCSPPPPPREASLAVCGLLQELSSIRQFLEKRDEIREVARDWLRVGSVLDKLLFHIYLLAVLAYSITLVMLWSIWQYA
# T2: A2A (h) (human), P29274
# T2 chain: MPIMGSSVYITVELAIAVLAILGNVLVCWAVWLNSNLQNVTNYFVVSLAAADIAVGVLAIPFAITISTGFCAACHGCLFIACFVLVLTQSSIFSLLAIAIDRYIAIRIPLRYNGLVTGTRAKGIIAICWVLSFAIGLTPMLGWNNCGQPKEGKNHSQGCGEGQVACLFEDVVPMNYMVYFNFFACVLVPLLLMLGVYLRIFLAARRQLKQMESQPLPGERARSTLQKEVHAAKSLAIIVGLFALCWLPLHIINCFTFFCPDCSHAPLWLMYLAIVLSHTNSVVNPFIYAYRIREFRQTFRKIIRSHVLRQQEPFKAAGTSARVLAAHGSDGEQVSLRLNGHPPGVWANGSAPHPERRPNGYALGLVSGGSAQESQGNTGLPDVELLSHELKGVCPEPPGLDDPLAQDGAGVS
# T3: D2S (h) (human), P14416
# T3 chain: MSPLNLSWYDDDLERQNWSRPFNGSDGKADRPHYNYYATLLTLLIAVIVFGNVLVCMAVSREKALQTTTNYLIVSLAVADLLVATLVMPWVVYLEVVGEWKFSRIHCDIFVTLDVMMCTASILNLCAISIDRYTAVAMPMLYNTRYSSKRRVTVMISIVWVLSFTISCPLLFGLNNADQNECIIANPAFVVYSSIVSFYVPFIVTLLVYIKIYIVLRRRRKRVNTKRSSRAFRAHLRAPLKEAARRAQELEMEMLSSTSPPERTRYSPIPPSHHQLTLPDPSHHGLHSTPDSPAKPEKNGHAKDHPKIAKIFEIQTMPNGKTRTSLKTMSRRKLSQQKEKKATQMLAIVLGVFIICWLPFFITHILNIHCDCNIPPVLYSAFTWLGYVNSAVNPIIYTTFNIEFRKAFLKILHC
# T4: alpha 1A (h) (human), P35348
# T4 chain: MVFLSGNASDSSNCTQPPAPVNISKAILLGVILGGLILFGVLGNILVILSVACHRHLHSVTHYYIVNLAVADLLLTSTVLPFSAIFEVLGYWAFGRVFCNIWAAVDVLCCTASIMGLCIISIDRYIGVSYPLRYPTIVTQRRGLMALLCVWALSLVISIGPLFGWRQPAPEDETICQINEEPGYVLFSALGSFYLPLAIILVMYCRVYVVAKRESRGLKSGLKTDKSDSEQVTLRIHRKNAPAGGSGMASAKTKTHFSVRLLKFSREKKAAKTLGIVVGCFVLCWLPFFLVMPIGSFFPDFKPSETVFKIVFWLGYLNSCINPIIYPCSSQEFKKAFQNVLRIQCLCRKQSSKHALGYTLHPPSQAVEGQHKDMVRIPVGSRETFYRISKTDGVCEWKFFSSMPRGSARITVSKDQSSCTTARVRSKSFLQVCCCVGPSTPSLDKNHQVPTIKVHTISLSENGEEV
# What was measured:
# Details in all cases: remark: other sources report otherwise
# [1] = target: 5-HT1B (h) (human), P28222; test: radioligand displacement, compound at 10 µM
# [2] = target: T1, 5-HT3 (h) (human), P46098; test: radioligand displacement, compound at 10 µM
# [3] = target: T2, A2A (h) (human), P29274; test: radioligand displacement, compound at 10 µM
# [4] = target: T3, D2S (h) (human), P14416; test: radioligand displacement, compound at 10 µM
# [5] = target: M3 (h) (human), P20309; test: radioligand displacement, compound at 10 µM
# [6] = target: T4, alpha 1A (h) (human), P35348; test: radioligand displacement, compound at 10 µM
# [7] = target: kappa (h) (KOP) (human), P41145; test: radioligand displacement, compound at 10 µM
# Sequence of kappa (h) (KOP) (human), P41145 (P41145 whole entry): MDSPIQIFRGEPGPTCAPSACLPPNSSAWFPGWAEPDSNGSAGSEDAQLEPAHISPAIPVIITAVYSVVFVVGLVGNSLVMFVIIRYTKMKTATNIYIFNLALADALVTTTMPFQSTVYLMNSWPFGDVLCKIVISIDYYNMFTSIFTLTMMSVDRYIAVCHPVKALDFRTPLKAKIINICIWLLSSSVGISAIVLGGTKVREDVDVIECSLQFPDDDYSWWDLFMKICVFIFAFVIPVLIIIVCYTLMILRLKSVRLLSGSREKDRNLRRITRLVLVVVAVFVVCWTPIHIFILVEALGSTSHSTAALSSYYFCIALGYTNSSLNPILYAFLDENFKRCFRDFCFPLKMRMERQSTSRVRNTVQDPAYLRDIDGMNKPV
# [8] = target: norepinephrine transporter (h) (human), P23975; test: radioligand displacement, compound at 10 µM
# Sequence of norepinephrine transporter (h) (human), P23975 (P23975 whole entry): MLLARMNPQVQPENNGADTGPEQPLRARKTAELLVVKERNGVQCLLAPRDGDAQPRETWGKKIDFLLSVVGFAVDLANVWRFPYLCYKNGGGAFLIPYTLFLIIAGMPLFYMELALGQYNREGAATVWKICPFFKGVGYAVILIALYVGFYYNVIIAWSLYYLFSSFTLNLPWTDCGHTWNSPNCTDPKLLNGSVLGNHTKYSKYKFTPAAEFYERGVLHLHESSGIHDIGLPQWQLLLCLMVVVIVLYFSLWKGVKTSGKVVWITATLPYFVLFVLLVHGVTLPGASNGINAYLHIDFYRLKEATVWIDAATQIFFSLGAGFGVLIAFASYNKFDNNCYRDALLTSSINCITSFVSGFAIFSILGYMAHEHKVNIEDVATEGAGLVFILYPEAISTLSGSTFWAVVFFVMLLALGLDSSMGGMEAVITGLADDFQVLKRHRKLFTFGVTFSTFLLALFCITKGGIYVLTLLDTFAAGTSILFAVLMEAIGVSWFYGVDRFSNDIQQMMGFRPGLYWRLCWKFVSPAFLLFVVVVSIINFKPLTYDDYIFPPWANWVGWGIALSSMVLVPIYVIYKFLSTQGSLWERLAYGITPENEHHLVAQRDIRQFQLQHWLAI
# [9] = target: human fibroblast activation protein (FAP) on human WI-38 fibroblasts (human); test: competitive FACS binding on FAP-expressing WI-38 cells against 3 nM Cy5-labeled compound; category A = pIC50 values >8.0
% Inhibition of Specific Binding [1] [%],% Inhibition of Specific Binding [2] [%],% Inhibition of Specific Binding [3] [%],% Inhibition of Specific Binding [4] [%],% Inhibition of Specific Binding [5] [%],% Inhibition of Specific Binding [6] [%],% Inhibition of Specific Binding [7] [%],% Inhibition of Specific Binding [8] [%],pIC50 Category (FACS) [9] [pIC50],Binder
8,4,-16,-7,1,-12,10,-5,> 8,CPPTQFC (here or on the partner: N-terminal hexanoyl (Hex); Cys1 and Cys7 cyclised through tMeBn carrying DOTA-AET; free C-terminal acid (-OH)) [Hex-[Cys(tMeBn(DOTA-AET))-Pro-Pro-Thr-Gln-Phe-Cys]-OH (3BP-3554)]
-11,2,-4,15,10,2,7,-8,–,CPPTQFCD (here or on the partner: N-terminal hexanoyl (Hex); Cys1 and Cys7 cyclised through tMeBn carrying DOTA-PP; C-terminal amide) [Hex-[Cys(tMeBn(DOTA-PP))-Pro-Pro-Thr-Gln-Phe-Cys]-Asp-NH2 (3BP-3407)]

# From patent publication US12427210B2, “Compounds comprising a fibroblast activation protein ligand and use thereof” (priority 2019, dated 2025)
